In patent US9061070B2, “Treating stroke and other diseases without inhibiting N-type calcium channels” (NoNO, Inc., priority 2007, dated 2015):
Read-outs that look alike come from different tables or passages of the source. Where no end group is shown, it is not given here. [ ]: non-standard residue; d: D form. Tle = CC(C)(C)[C@H](N)C(=O)O; Nva = CCC[C@H](N)C(=O)O

What was measured:
[1] = test system: pial 3 vessel occlusion (P3VO) model of stroke; test: Pial vessel occlusion (P3VO) model of permanent ischemia; format: in vivo, Sprague Dawley rats; conditions: for reduction of infarct size: single dose 3 nmol/g one hour after initiating ischemia, FIG. 3
N-type calcium channels = N-type calcium channels (Mus musculus, UniProt O55017); test: Whole-cell patch clamp recordings of calcium currents in dorsal root ganglion neurons; format: cell-based, Swiss mice
N-type calcium channels, sequence (O55017 whole entry): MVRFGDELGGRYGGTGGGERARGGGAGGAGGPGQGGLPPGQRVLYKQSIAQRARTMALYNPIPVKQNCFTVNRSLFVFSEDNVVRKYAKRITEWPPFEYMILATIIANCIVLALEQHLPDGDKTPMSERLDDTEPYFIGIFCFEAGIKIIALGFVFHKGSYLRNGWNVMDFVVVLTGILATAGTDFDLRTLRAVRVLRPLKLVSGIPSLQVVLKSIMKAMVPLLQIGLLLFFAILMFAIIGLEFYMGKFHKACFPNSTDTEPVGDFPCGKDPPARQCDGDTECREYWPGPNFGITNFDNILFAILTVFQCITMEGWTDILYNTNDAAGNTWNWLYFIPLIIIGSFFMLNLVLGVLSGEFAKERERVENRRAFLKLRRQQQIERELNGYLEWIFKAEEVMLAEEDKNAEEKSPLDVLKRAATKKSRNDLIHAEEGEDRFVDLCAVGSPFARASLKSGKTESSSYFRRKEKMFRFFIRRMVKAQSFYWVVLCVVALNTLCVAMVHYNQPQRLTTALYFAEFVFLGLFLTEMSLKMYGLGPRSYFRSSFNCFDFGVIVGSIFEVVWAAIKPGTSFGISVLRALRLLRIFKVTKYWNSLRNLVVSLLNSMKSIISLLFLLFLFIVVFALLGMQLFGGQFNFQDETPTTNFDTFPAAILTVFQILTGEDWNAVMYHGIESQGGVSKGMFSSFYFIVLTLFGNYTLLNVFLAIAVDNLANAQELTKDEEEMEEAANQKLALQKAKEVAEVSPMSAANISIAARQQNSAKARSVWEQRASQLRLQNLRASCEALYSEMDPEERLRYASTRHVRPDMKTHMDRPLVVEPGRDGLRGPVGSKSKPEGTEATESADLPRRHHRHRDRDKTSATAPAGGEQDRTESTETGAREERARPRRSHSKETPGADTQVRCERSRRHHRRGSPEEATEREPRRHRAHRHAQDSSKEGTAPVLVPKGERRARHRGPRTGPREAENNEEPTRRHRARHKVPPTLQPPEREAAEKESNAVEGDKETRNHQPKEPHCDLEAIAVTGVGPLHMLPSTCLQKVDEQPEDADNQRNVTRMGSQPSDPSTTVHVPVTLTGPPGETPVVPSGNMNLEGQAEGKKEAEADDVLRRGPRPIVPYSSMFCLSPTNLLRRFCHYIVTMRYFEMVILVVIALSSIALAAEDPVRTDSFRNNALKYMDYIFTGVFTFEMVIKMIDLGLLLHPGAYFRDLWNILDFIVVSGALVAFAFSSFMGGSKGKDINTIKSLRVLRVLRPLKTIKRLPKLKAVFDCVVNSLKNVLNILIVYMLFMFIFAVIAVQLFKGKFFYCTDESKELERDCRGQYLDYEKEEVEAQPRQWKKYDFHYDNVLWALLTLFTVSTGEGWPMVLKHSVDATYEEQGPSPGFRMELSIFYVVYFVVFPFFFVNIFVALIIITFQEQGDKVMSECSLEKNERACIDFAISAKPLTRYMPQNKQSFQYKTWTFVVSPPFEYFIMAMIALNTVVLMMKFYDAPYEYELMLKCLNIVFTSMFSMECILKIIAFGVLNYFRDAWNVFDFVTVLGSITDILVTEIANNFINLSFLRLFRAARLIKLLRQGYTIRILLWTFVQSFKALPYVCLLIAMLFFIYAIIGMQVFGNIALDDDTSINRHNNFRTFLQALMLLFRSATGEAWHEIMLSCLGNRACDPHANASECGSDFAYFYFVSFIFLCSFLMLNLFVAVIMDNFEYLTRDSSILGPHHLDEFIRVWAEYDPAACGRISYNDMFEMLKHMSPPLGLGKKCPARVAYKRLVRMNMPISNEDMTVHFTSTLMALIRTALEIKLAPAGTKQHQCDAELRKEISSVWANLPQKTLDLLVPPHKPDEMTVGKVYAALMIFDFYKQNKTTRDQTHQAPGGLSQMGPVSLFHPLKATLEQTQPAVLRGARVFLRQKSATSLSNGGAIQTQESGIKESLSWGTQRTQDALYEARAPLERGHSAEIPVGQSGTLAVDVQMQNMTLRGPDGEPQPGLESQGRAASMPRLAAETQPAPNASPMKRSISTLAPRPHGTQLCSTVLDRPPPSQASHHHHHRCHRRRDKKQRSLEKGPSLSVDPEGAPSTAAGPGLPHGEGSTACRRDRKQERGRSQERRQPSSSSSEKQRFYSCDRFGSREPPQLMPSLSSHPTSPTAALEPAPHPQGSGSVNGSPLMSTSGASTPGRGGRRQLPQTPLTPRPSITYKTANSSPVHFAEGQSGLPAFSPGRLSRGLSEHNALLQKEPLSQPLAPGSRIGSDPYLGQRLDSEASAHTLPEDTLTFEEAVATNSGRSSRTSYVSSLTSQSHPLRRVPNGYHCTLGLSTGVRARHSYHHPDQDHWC
N-type calcium channels, sequence (O08532 25-956 partner limits assumed): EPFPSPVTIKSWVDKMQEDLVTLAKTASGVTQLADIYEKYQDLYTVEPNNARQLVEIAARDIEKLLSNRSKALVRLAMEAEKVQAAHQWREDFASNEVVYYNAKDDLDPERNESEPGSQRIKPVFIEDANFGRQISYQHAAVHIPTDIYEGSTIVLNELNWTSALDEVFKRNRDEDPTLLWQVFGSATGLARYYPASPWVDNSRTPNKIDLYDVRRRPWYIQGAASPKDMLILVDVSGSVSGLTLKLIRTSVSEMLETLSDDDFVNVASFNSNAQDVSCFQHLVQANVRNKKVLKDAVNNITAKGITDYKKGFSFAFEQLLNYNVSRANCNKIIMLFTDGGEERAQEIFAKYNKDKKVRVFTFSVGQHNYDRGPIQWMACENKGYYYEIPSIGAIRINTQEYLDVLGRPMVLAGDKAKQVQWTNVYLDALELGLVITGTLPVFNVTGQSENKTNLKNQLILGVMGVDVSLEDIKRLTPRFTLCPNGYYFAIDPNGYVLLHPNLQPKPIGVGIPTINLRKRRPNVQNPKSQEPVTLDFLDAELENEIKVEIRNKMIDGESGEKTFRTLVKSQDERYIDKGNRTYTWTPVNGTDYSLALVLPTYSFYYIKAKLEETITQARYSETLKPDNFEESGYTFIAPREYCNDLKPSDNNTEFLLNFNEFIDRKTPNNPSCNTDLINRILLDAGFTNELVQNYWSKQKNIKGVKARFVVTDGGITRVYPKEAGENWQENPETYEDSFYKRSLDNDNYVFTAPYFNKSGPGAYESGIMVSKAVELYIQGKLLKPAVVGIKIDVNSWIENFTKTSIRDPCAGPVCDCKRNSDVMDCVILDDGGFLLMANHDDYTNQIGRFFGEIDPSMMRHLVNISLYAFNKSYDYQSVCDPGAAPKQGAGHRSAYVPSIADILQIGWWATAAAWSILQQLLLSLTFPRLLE
N-type calcium channels, sequence (O08532 957-1103 partner limits assumed): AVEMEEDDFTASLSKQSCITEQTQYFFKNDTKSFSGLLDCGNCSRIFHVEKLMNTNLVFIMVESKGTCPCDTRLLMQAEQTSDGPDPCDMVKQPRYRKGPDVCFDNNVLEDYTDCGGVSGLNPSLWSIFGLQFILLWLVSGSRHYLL
N-type calcium channels, sequence (P54285 whole entry partner): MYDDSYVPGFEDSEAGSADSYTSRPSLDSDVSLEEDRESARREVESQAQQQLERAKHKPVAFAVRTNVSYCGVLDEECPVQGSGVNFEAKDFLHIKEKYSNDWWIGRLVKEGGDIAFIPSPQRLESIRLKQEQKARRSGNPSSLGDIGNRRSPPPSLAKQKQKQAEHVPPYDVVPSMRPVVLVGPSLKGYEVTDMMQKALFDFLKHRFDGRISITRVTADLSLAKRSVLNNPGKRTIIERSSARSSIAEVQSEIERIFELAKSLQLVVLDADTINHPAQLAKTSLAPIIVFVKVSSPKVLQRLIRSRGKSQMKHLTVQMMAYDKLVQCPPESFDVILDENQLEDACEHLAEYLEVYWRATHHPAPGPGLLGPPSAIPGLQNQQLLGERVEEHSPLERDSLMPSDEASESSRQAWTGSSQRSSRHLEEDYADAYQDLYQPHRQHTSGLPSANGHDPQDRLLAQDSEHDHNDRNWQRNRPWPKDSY

[2] = cited from earlier work
N-type Ca channels = N-type Ca channels (Homo sapiens, UniProt Q00975); format: binding; conditions: 10 μM peptide
MCAO model of stroke = conditions: previously tested; cited from earlier work
[3] = 3 nMol/g i.v. one hour after occlusion, 24 h, FIG. 8
[4] = peptide at 100 μM, mean+/-s.e.m., DRG neurons

## YGRKKRRQRRRKLSSIESDX (YGRKKRRQRRRKLSSIESD[Nva]) [Peptide 1976]
[1]; [3]
  infarct size (percent of hemisphere): significantly decreased infarct sizes

## KLSSIESDV (Synthetic active peptide - 1991 2B9c) [Peptide 1991]
N-type calcium channels; FIG. 2, peptide at 100 μM
  inhibition of N-type calcium channel activity (in words): no significant inhibition
N-type calcium channels; [4]
  Ca2+ current shown as a percentage (normalized to current before peptide): 94+/−1.7%

## 1987: D-isomer of Tat-NR2B9c ([dY]G[dR][dK][dK][dR][dR][dQ][dR][dR][dR][dA][dL][dS][dS][dI][dE][dS][dD][dV]) [Peptide 1987]
N-type calcium channels
  Ca2+ current shown as a percentage (normalized to current before peptide): 82+/−2.2%
  inhibition of N-type calcium channel activity (in words): significant improvement in channel activity over TAT alone although still displayed some reduction

## YGRKKRRQRRRKLSSIESDX [1977] (YGRKKRRQRRRKLSSIESD[Tle]) [Peptide 1977]
N-type calcium channels; [4]
  Ca2+ current shown as a percentage (normalized to current before peptide): 65+/−5.1%

## CC[C@H](C)C(=O)O[C@H]1C[C@H](O)C=C2C=C[C@H](C)[C@H](CC[C@@H](O)C[C@@H](O)CC(=O)O)[C@H]21 [Pravachol ® (pravastatin), pravastatin]
[2]
  bioavailability: efficacy, low

## NCCCC[C@H](N[C@@H](CCc1ccccc1)C(=O)O)C(=O)N1CCC[C@H]1C(=O)O [Prinivil ® (lininopril), lininopril]
[2]
  halflife: crossing, 12 hr

## FGRKKRRQRRRALSSIESDV (also: fluorescent label, place not given here (F-Tat-NR2B9c)) [Peptide 1995]
N-type calcium channels; [4]
  Ca2+ current shown as a percentage (normalized to current before peptide): 97+/−0.2%

## YGRKKRRQRRRKLSSIESDV [Tat-NR2B9c, reference compound]
N-type Ca channels
  inhibition of radiolabeled ω-Conotoxin GVIA binding to N-type Ca channels: 100%
MCAO model of stroke
  neuroprotection, infarct size: neuroprotective as seen by a reduced infarct size
N-type calcium channels; 100 μM, 0.07, 10, 20, 50 Hz, FIG. 6
  frequency (use) dependence of block of Ca2+ currents: not frequency dependent
N-type calcium channels; [4]
  Ca2+ current shown as a percentage (normalized to current before peptide): 68+/−1.7%
N-type calcium channels; steps from −40 to +50 mV, FIG. 7
  voltage dependence of inhibition of Ca2+ current: independent of voltage
[1]; [3]
  infarct size (percent of hemisphere): significantly decreased infarct sizes
[1]
  reduction of infarct size: equally effective in reducing infarct size

## YGRKKRRQRRR [Peptide 1990, reference compound]
N-type calcium channels
  Ca2+ current shown as a percentage (normalized to current before peptide): 57+/−1.6%

## YGRKKRRQRRRKLSSIEADA (Synthetic peptide - 1992 Tat-NR2B9c-AA) [Peptide 1992]
N-type calcium channels; FIG. 2, peptide at 100 μM
  inhibition of N-type calcium channel activity (in words): significant improvement in channel activity over TAT alone although still displayed some reduction
N-type calcium channels; [4]
  Ca2+ current shown as a percentage (normalized to current before peptide): 74+/−2.4%

## YGRKKRRQRRRKLSSIEXDV (YGRKKRRQRRRKLSSIE[L‑2‑amino‑3‑ureidopropionic acid]DV) [Peptide 1978]
[1]; rat, in vivo, iv
  infarct size (percent of hemisphere): some reduction in infarct size

## YGRKKRRQRRRKLSSIETDX (YGRKKRRQRRRKLSSIETD[Nva]) [Peptide 1975]
[1]; [3]
  infarct size (percent of hemisphere): some reduction in infarct size

## FGRKKRRQRRRKLSSIESDV (also: fluorescent label, place not given here (F-Tat-NR2B9c)) [Peptide 1993]
N-type calcium channels; FIG. 2, peptide at 100 μM
  inhibition of N-type calcium channel activity (in words): no significant inhibition
N-type calcium channels; [4]
  Ca2+ current shown as a percentage (normalized to current before peptide): 91+/−1.6%
[1]
  reduction of infarct size: equally effective in reducing infarct size

## YGRKKRRQRRRALSSIESDV (Synthetic peptide - 1994 Tat-NR2B9c K to A) [Peptide 1994]
N-type calcium channels; FIG. 2, peptide at 100 μM
  inhibition of N-type calcium channel activity (in words): significant improvement in channel activity over TAT alone although still displayed some reduction
N-type calcium channels; FIG. 2, peptide at 100 μM, listed as 1994 Tat-NR2B9c K to A
  inhibition of N-type calcium channel activity (in words): no significant inhibition
N-type calcium channels; [4]
  Ca2+ current shown as a percentage (normalized to current before peptide): 77+/−1.8%

## N[C@@H](Cc1ccc(O)c(O)c1)C(=O)O [Levodopa]
[2]
  halflife: halflife = 1.5 hrs

## YGRKKRRQRRRKLSSIESDX [1976] (YGRKKRRQRRRKLSSIESD[Nva]) [Peptide 1976]
N-type calcium channels; [4]
  Ca2+ current shown as a percentage (normalized to current before peptide): 66+/−3.4%
